Laboratory results taken from paper PMC10558373, “[^68Ga]Ga-NODAGA-E[(cRGDyK)]2 angiogenesis PET following myocardial infarction in an experimental rat model predicts cardiac functional parameters and development of heart failure” (Journal of Nuclear Cardiology, 2023).
[ ]: non-standard residue; d: D form.

T1: integrin αvβ3 (UniProt P06756 31-1048; P05106 27-788)
T1 chain 1: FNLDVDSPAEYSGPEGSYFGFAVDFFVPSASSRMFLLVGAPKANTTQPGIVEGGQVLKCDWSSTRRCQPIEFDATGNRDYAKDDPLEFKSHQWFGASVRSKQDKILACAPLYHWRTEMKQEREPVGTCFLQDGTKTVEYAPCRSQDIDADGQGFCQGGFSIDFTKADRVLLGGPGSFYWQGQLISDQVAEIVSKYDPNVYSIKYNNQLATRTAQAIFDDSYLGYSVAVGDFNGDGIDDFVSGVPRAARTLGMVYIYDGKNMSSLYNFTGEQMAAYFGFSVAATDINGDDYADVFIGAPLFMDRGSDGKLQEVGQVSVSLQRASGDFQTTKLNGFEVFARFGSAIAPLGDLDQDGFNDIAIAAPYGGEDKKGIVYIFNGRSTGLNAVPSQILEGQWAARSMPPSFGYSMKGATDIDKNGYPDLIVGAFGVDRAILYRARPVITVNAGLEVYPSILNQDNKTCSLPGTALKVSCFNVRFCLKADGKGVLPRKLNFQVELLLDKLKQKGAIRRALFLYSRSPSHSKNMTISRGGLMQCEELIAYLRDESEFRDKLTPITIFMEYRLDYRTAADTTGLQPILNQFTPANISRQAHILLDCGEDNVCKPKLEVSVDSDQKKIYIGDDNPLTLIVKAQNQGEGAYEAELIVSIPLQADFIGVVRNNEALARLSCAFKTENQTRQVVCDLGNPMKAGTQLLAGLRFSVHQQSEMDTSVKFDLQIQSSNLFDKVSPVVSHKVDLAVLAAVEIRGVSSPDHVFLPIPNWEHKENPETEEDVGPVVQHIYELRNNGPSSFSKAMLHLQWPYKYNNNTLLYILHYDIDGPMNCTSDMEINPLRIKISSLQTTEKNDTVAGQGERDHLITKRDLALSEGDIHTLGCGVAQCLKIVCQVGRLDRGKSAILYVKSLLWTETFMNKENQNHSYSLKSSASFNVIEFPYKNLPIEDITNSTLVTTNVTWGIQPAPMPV
T1 chain 2: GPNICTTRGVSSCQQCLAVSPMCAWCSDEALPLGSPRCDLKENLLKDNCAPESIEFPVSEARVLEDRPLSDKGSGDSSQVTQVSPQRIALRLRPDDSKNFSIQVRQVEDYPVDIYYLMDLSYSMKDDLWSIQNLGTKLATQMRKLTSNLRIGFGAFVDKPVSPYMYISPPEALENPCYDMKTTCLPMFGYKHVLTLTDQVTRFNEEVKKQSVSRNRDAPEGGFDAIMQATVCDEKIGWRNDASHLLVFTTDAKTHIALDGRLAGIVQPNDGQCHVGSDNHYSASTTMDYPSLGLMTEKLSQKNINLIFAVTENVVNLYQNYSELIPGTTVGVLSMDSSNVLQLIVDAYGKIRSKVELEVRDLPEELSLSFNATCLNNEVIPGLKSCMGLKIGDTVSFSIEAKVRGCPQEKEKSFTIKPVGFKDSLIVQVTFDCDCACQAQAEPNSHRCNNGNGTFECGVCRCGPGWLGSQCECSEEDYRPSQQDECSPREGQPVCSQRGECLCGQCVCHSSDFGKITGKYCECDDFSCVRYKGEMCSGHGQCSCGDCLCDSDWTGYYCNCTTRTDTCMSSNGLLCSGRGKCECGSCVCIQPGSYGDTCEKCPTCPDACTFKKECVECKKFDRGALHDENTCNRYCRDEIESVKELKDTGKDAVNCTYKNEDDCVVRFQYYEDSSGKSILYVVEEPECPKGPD


Tests used:
integrin αvβ3 [1] = biological target: integrin αvβ3 (UniProt P06756); assay: SPR; Biacore X100, CM5 chip, integrin αvβ3 amine-coupled (~4200 RU), single cycle kinetics; running buffer Tris-HCl 20 mM, NaCl 150 mM, P20 0.05%, MgCl2 1 mM, pH 7.4; kinetic fit, steady state fit for fibronectin
integrin αvβ3 [2] = biological target: integrin αvβ3 (UniProt P06756); assay: SPR; Biacore X100, CM5 chip, integrin αvβ3 amine-coupled (~4200 RU), single cycle kinetics; running buffer Tris-HCl 20 mM, NaCl 150 mM, P20 0.05%, MgCl2 1 mM and MnCl2 1 mM, pH 7.4; kinetic fit, steady state fit for fibronectin
integrin αvβ3 [3] = biological target: T1, integrin αvβ3; assay: SPR; Mg2+
integrin αvβ3 [4] = biological target: T1, integrin αvβ3; assay: SPR; Mg2+
integrin αvβ3 [5] = biological target: T1, integrin αvβ3; assay: SPR; Mg2+ + Mn2+
integrin αvβ3 [6] = biological target: T1, integrin αvβ3; assay: SPR; Mg2+ + Mn2+
integrin αvβ3 [7] = biological target: integrin αvβ3 (UniProt P06756 31-1048; P05106 27-788); assay: SPR; Biacore X100, single cycle kinetics, in the presence of Mg2+ and Mn2+; conditions: both partners purified
integrin αvβ3 [8] = biological target: integrin αvβ3 (UniProt P06756); assay: SPR; Biacore X100, CM5 chip, integrin αvβ3 amine-coupled (~4200 RU), single cycle kinetics; running buffer Tris-HCl 20 mM, NaCl 150 mM, P20 0.05%, MgCl2 1 mM, pH 7.4; kinetic fit, steady state fit for fibronectin; remark: listed apart in the source
integrin αvβ3 [9] = biological target: integrin αvβ3 (UniProt P06756); assay: SPR; Biacore X100, CM5 chip, integrin αvβ3 amine-coupled (~4200 RU), single cycle kinetics; running buffer Tris-HCl 20 mM, NaCl 150 mM, P20 0.05%, MgCl2 1 mM and MnCl2 1 mM, pH 7.4; kinetic fit, steady state fit for fibronectin; remark: listed apart in the source

Sequence of vitronectin (P04004 20-478): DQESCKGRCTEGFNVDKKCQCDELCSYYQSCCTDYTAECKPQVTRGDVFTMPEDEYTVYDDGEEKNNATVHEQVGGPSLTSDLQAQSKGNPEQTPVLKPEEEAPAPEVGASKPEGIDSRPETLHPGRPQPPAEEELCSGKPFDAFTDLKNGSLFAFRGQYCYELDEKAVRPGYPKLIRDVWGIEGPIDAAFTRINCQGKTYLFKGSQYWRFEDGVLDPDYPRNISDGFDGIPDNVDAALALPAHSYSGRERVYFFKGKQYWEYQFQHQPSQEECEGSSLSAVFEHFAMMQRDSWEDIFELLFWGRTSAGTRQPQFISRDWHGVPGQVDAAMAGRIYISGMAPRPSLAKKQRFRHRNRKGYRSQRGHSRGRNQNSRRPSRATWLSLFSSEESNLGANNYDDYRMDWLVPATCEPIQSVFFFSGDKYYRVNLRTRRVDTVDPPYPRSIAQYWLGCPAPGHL

Row | Molecule | Kd (integrin αvβ3 [1]) | koff (integrin αvβ3 [1]) | kon (integrin αvβ3 [1]) | Kd (integrin αvβ3 [2]) | koff (integrin αvβ3 [2]) | kon (integrin αvβ3 [2]) | Kd (integrin αvβ3 [3]) | koff (integrin αvβ3 [4]) | Kd (integrin αvβ3 [5]) | koff (integrin αvβ3 [6]) | fold stronger binding than vitronectin (integrin αvβ3 [7]) | Kd (integrin αvβ3 [8]) | koff (integrin αvβ3 [8]) | kon (integrin αvβ3 [8]) | Kd (integrin αvβ3 [9]) | koff (integrin αvβ3 [9]) | kon (integrin αvβ3 [9])
1 | vitronectin (from UniProt P04004 20-478) (ligand) | 1.3 nM | 0.00021 s⁻¹ | 32000 M⁻¹ s⁻¹ | 24 nM | 0.00032 s⁻¹ | 13000 M⁻¹ s⁻¹ |  |  |  |  |  |  |  |  |  |  | 
2 | cyclo(RGD[dY]K) (also: dimer of two cyclic peptides on a Glu linker, NODAGA chelator with 68Ga) [[^68Ga]Ga-NODAGA-E[(cRGDyK)]2] |  |  |  |  |  |  | 0.075 nM | 7e-05 s⁻¹ | 0.00071 nM | 2.5e-07 s⁻¹ | 1000 fold | 0.075 nM | 7e-05 s⁻¹ | 930000 M⁻¹ s⁻¹ | 0.00071 nM | 2.5e-07 s⁻¹ | 350000 M⁻¹ s⁻¹
